Read-outs that look alike come from different tables or passages of the source.
B1: UBAP2L (protein, UniProt Q14157 1-1087, looked up)
Ubiquitin-associated protein …: MMTSVGTNRARGNWEQPQNQNQTQHKQRPQATAEQIRLAQMISDHNDADFEEKVKQLIDITGKNQDECVIALHDCNGDVNRAINVLLEGNPDTHSWEMVGKKKGVSGQKDGGQTESNEEGKENRDRDRDYSRRRGGPPRRGRGASRGREFRGQENGLDGTKSGGPSGRGTERGRRGRGRGRGGSGRRGGRFSAQGMGTFNPADYAEPANTDDNYGNSSGNTWNNTGHFEPDDGTSAWRTATEEWGTEDWNEDLSETKIFTASNVSSVPLPAENVTITAGQRIDLAVLLGKTPSTMENDSSNLDPSQAPSLAQPLVFSNSKQTAISQPASGNTFSHHSMVSMLGKGFGDVGEAKGGSTTGSQFLEQFKTAQALAQLAAQHSQSGSTTTSSWDMGSTTQSPSLVQYDLKNPSDSAVHSPFTKRQAFTPSSTMMEVFLQEKSPAVATSTAAPPPPSSPLPSKSTSAPQMSPGSSDNQSSSPQPAQQKLKQQKKKASLTSKIPALAVEMPGSADISGLNLQFGALQFGSEPVLSDYESTPTTSASSSQAPSSLYTSTASESSSTISSNQSQESGYQSGPIQSTTYTSQNNAQGPLYEQRSTQTRRYPSSISSSPQKDLTQAKNGFSSVQATQLQTTQSVEGATGSAVKSDSPSTSSIPPLNETVSAASLLTTTNQHSSSLGGLSHSEEIPNTTTTQHSSTLSTQQNTLSSSTSSGRTSTSTLLHTSVESEANLHSSSSTFSTTSSTVSAPPPVVSVSSSLNSGSSLGLSLGSNSTVTASTRSSVATTSGKAPPNLPPGVPPLLPNPYIMAPGLLHAYPPQVYGYDDLQMLQTRFPLDYYSIPFPTPTTPLTGRDGSLASNPYSGDLTKFGRGDASSPAPATTLAQPQQNQTQTHHTTQQTFLNPALPPGYSYTSLPYYTGVPGLPSTFQYGPAVFPVAPTSSKQHGVNVSVNASATPFQQPSGYGSHGYNTGVSVTSSNTGVPDISGSVYSKTQQSFEKQGFHSGTPAASFNLPSALGSGGPINPATAAAYPPAPFMHILTPHQQPHSQILHHHLQQDGQTGSGQRSQTSSIPQKPQTNKSAYNSYSWGAN
B2: TIA1 (protein, UniProt P31483 1-386, looked up)
Cytotoxic granule associated …: MEDEMPKTLYVGNLSRDVTEALILQLFSQIGPCKNCKMIMDTAGNDPYCFVEFHEHRHAAAALAAMNGRKIMGKEVKVNWATTPSSQKKDTSSSTVVSTQRSQDHFHVFVGDLSPEITTEDIKAAFAPFGRISDARVVKDMATGKSKGYGFVSFFNKWDAENAIQQMGGQWLGGRQIRTNWATRKPPAPKSTYESNTKQLSYDEVVNQSSPSNCTVYCGGVTSGLTEQLMRQTFSPFGQIMEIRVFPDKGYSFVRFNSHESAAHAIVSVNGTTIEGHVVKCYWGKETLDMINPVQQQNQIGYPQPYGQWGQWYGNAQQIGQYMPNGWQVPAYGMYGQAWNQQGFNQTQSSAPWMGPNYGVQPPQGQNGSMLPNQPSGYRVAGYETQ
B3: PURB (protein, UniProt Q96QR8 2-312, looked up)
Transcriptional regulator …: ADGDSGSERGGGGGPCGFQPASRGGGEQETQELASKRLDIQNKRFYLDVKQNAKGRFLKIAEVGAGGSKSRLTLSMAVAAEFRDSLGDFIEHYAQLGPSSPEQLAAGAEEGGGPRRALKSEFLVRENRKYYLDLKENQRGRFLRIRQTVNRGGGGFGAGPGPGGLQSGQTIALPAQGLIEFRDALAKLIDDYGGEDDELAGGPGGGAGGPGGGLYGELPEGTSITVDSKRFFFDVGCNKYGVFLRVSEVKPSYRNAITVPFKAWGKFGGAFCRYADEMKEIQERQRDKLYERRGGGSGGGEESEGEEVDED
B4: SYNCRIP: host protein, UniProt O60506 (protein, UniProt O60506 2-623, looked up)
Heterogeneous nuclear …: ATEHVNGNGTEEPMDTTSAVIHSENFQTLLDAGLPQKVAEKLDEIYVAGLVAHSDLDERAIEALKEFNEDGALAVLQQFKDSDLSHVQNKSAFLCGVMKTYRQREKQGTKVADSSKGPDEAKIKALLERTGYTLDVTTGQRKYGGPPPDSVYSGQQPSVGTEIFVGKIPRDLFEDELVPLFEKAGPIWDLRLMMDPLTGLNRGYAFVTFCTKEAAQEAVKLYNNHEIRSGKHIGVCISVANNRLFVGSIPKSKTKEQILEEFSKVTEGLTDVILYHQPDDKKKNRGFCFLEYEDHKTAAQARRRLMSGKVKVWGNVGTVEWADPIEDPDPEVMAKVKVLFVRNLANTVTEEILEKAFSQFGKLERVKKLKDYAFIHFDERDGAVKAMEEMNGKDLEGENIEIVFAKPPDQKRKERKAQRQAAKNQMYDDYYYYGPPHMPPPTRGRGRGGRGGYGYPPDYYGYEDYYDYYGYDYHNYRGGYEDPYYGYEDFQVGARGRGGRGARGAAPSRGRGAAPPRGRAGYSQRGGPGSARGVRGARGGAQQQRGRGVRGARGGRGGNVGGKRKADGYNQPDSKRRQTNNQNWGSQPIAQQPLQGGDHSGNYGYKSENQEFYQDTFGQQWK
B5: HNRNPC (protein, UniProt P07910 2-306, looked up)
Heterogeneous nuclear …: ASNVTNKTDPRSMNSRVFIGNLNTLVVKKSDVEAIFSKYGKIVGCSVHKGFAFVQYVNERNARAAVAGEDGRMIAGQVLDINLAAEPKVNRGKAGVKRSAAEMYGSVTEHPSPSPLLSSSFDLDYDFQRDYYDRMYSYPARVPPPPPIARAVVPSKRQRVSGNTSRRGKSGFNSKSGQRGSSKSGKLKGDDLQAIKKELTQIKQKVDSLLENLEKIEKEQSKQAVEMKNDKSEEEQSSSSVKKDETNVKMESEGGADDSAEEGDLLDDDDNEDRGDDQLELIKDDEKEAEEGEDDRDSANGEDDS
B6: CHTOP (protein, UniProt Q9Y3Y2 2-248, looked up)
Chromatin target of PRMT1 …: AAQSAPKVVLKSTTKMSLNERFTNMLKNKQPTPVNIRASMQQQQQLASARNRRLAQQMENRPSVQAALKLKQSLKQRLGKSNIQARLGRPIGALARGAIGGRGLPIIQRGLPRGGLRGGRATRTLLRGGMSLRGQNLLRGGRAVAPRMGLRRGGVRGRGGPGRGGLGRGAMGRGGIGGRGRGMIGRGRGGFGGRGRGRGRGRGALARPVLTKEQLDNQLDAYMSKTKGHLDAELDAYMAQTDPETND

Columns and labels:
Format in all cases: binding
[1] = tested on: SARS-CoV-2 gRNA and sgRNAs; details: for target (unweighted spectral count in RNP capture): Probe II capture, LC-MS/MS LFQ; for background (unweighted spectral count in control): no-probe control pull-down, used as background for Probe II; for target (unweighted spectral count of the protein in the RNP capture experiment): LC-MS/MS label-free quantification, probe pool not given; for back-ground (unweighted spectral count of the protein in the control experiment): protein background of the control (e.g. no-probe) experiment
gRNA of HCoV-OC43 = details: type n_48_v: 48 hours post-infection; for target (spectral count, OC43 Probe I RNP capture): infected cells, unweighted spectral count; for background (spectral count, no-probe control): no-probe control on infected cells
HCoV-OC43 gRNA and sgRNA = details: for target (unweighted spectral count, OC43 Probe II capture): type n_36_v, FDR<10%; for target (unweighted spectral count, OC43 Probe II capture) / target (unweighted spectral count): tested against no-probe control; for target (unweighted spectral count, OC43 Probe II) / background (unweighted spectral count, no-probe control): type n_48_v, 48 hpi; for target (unweighted spectral count, OC43 Probe II): OC43 Probe II capture on infected cells; for background (unweighted spectral count, no-probe control): no-probe control on infected cells; for target (unweighted spectral count): OC43 Probe II, infected cells

Molecule	target (unweighted spectral count in RNP capture) [1]	background (unweighted spectral count in control) [1]	target (spectral count, OC43 Probe I RNP capture) (gRNA of HCoV-OC43)	background (spectral count, no-probe control) (gRNA of HCoV-OC43)	target (unweighted spectral count, OC43 Probe II capture) (HCoV-OC43 gRNA and sgRNA; 36 hpi)	target (unweighted spectral count of the protein in the RNP capture experiment) [1]	back-ground (unweighted spectral count of the protein in the control experiment) [1]	target (unweighted spectral count, OC43 Probe II) (HCoV-OC43 gRNA and sgRNA)	background (unweighted spectral count, no-probe control) (HCoV-OC43 gRNA and sgRNA)	target (unweighted spectral count) (HCoV-OC43 gRNA and sgRNA; 12 hpi (type n_12_v))	target (unweighted spectral count) (HCoV-OC43 gRNA and sgRNA; 24 hpi (type n_24_v))	target (spectral count) (HCoV-OC43 gRNA and sgRNA; type s_36_m, HCoV-OC43-infected HCT-8 cells, 36 hpi, Probe II)	background (spectral count) (HCoV-OC43 gRNA and sgRNA; type s_36_m, uninfected-probe control, 36 hpi, Probe II)
B1	17	1	6	1	5								
B2	11	1			6								
B3			5	1		5	1	5	1				
B4	159	1	88	7	97			87	7	33	55	97	23
B5	75	2		19	69			88	19	30	40		
B6			6	1	5	5	1	6	1				

Reference: US20230407373A1 (priority 2020, published 2023)
